The values below come from US20230265201A1 (published 2023).

In assay [1] the target is T1, rhesus recombinant CD70 (FLAG-TNC-rhesus CD70) (rhesus macaque (Macaca mulatta), UniProt F7GPA5 174-316).
T1 construct: also called rhesus Flag-TNC-CD70; Rhesus monkey; not shown: Flag tag and TNC trimerisation domain
T1 sequence: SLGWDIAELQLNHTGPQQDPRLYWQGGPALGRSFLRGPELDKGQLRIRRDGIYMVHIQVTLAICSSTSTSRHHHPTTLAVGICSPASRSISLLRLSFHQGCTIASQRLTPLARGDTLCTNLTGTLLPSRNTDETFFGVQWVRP
The assay is described as follows: inhibition ELISA: CD27 binding to FLAG-TNC-rhesus CD70. The source says:
In this assay, Flag-TNC-CD70 is captured by an anti-Flag mAb and binding of CD27-Fc is detected via a biotinylated anti-CD27 mAb and strep-HRP in the absence or presence of CD70 Fabs (FIGS. 2 and 3) or CD70 mAbs (FIG. 4). In FIG. 2B it can be seen that 27B3, which has an identical VH as 9D1, but contains a somewhat different light chain, seems to block binding of CD27 to CD70 more efficiently, which was in line with the better off rate of this Fab as measured on Biacore (data not shown). Table 3 indicates the blocking potency (expressed as IC50) for the various llama-human chimeric mAbs tested in the CD70 inhibition ELISA. […] FIG. 3 is a composite of an experiment testing llama CD70 Fabs for blocking activity (in the inhibition ELISA, see white bars) and for CD70 binding (binding ELISA, black bars). For the binding ELISA, Flag-TNC-CD70 is captured by an anti-Flag mAb and binding of the Fabs is detected using an anti-myc-HRP mAb, which recognizes the MYC tag fused to the C-terminus of the Fd fragment. For comparison purposes, known monoclonal antibodies to CD70 (SGN70 described in US 2010/0129362 A1, clone 1F6; and MDX69A7 described in WO2008/074004FIGS. 5A and 5B) were tested in parallel. […] Of interest is clone 59D10, which as Fab has no blocking activity, but when converted into a chimeric IgG was antagonistic (see Table 3). […]

Assay [2] concerns the target T1, rhesus recombinant CD70 …. The assay is described as follows: CD27-CD70 inhibition ELISA, rhesus Flag-TNC-CD70. The method, then: In this assay, a microtiter plate (Nunc Maxisorb) was first coated with 100 µl anti-FLAG M2 monoclonal antibody (Sigma Aldrich, F3165) at 1250-fold dilution in PBS (to achieve a final concentration of approximately 3.5 µg/ml) overnight at 4° C. The plate was washed once with PBS-Tween and incubated at RT for 2 hours with 300 µl PBS-1% casein. The plate was washed a further three times with PBS-Tween. 100 µl of 5 ng/ml (80 pM) Flag-TNC-CD70 (The Journal of Immunology, 2009, 183: 1851-1861) diluted in PBS-0.1% casein was added to the plate and incubated at RT for 1 hour while shaking. The plate was washed five times with PBS-Tween. The CD70 mAb to be tested was added to the plate; various concentrations were achieved by diluting the stock antibody solution in PBS-0.1% casein. Immediately thereafter, 50 µl of 1 µg/ml (final concentration 6.5 nM) recombinant human CD27 Fc chimera (R&D systems 382-CD, MW = 46.5 kDa) was added, and incubated at RT for 1 hour while shaking. The plate was washed five times with PBS Tween. 100 µl of biotinylated anti-CD27 (eBioscience 13-0271), diluted 500-fold in PBS-0.1% casein, was added, and the plate incubated at RT for a further hour, while shaking. The plate was washed five times with PBS Tween. […] 100 µl TMB was added to the plate and the OD at 620 nm was measured. […]
Background: ELISA stands for enzyme-linked immunosorbent assay.

Assay [3] deals with cynomolgus monkey Flag-TNC-CD70 (cynomolgus monkey). The assay is described as follows: CD27-CD70 inhibition ELISA, cynomolgus Flag-TNC-CD70.
Assay [4] has as its target T2, human CD70 on the surface of cells (human, UniProt P32970 1-193).
T2 sequence (looked up): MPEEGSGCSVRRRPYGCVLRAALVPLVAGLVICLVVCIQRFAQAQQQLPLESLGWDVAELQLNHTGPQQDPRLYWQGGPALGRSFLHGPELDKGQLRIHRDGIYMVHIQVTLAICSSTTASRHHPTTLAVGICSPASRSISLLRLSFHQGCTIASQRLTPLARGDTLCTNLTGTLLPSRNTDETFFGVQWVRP
The assay is described as follows: cell-based or functional assay.

The target in assay [5] is T3, recombinant human CD70 (Flag-TNC-CD70) (human, UniProt P32970 39-193).
T3 construct: extracellular domain; also called recombinant CD70; human Flag-TNC-CD70; not shown: Flag tag and TNC trimerisation domain
T3 sequence (looked up): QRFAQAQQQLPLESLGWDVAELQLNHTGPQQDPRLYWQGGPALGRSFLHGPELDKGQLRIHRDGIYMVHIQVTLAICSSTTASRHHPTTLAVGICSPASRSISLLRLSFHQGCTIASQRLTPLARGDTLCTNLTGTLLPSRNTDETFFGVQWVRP
The assay is described as follows: CD27-CD70 inhibition ELISA, human Flag-TNC-CD70.

Assay [6] concerns the target T3, recombinant human CD70 (Flag-TNC-CD70). The assay is described as follows: inhibition ELISA: CD27-Fc binding to anti-Flag-captured Flag-TNC-CD70. The method, then:
From selected phage transfected into TG1, individual colonies were picked randomly for growth in 96 well plates. After IPTG induction according to standard protocols periplasmic fractions (peris) containing Fabs were prepared. […] In this assay, Flag-TNC-CD70 is captured by an anti-Flag mAb and binding of CD27-Fc is detected via a biotinylated anti-CD27 mAb and strep-HRP in the absence or presence of CD70 Fabs (FIGS. 2 and 3) or CD70 mAbs (FIG. 4). In FIG. 2B it can be seen that 27B3, which has an identical VH as 9D1, but contains a somewhat different light chain, seems to block binding of CD27 to CD70 more efficiently, which was in line with the better off rate of this Fab as measured on Biacore (data not shown). Table 3 indicates the blocking potency (expressed as IC50) for the various llama-human chimeric mAbs tested in the CD70 inhibition ELISA. […] FIG. 3 is a composite of an experiment testing llama CD70 Fabs for blocking activity (in the inhibition ELISA, see white bars) and for CD70 binding (binding ELISA, black bars). For the binding ELISA, Flag-TNC-CD70 is captured by an anti-Flag mAb and binding of the Fabs is detected using an anti-myc-HRP mAb, which recognizes the MYC tag fused to the C-terminus of the Fd fragment. […]

The target in assay [7] is T4, rhesus recombinant CD70 (FLAG-TNC-rhesus CD70) (rhesus macaque (Macaca mulatta)) (UniProt F7GPA5).
T4 sequence: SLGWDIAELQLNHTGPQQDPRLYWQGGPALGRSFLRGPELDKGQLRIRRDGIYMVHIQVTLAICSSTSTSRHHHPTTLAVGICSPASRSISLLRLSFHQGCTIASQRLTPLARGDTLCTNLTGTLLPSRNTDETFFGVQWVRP
Put plainly: CD27-CD70 inhibition ELISA, rhesus Flag-TNC-CD70.

The target of assay [8] is T3, recombinant human CD70 (Flag-TNC-CD70). The assay is described as follows: blocking ELISA of Example 19: CD27 Fc chimera on anti-Flag-captured Flag-TNC-CD70.
In assay [9] the target is T1, rhesus recombinant CD70 …. Put plainly: Biacore off-rate, Fab over immobilised rhesus CD70. In general terms: In SPR one partner is held on a chip, and binding of the other changes the refractive index at the surface.

B1: 57B6 chimeric llama-human mAb (antibody, V domains shown)
VH: QLQLVESGGGLVQPGGSLRLSCAASGFSFSHYAMSWVRQAPGKGLEWVSGDNTYDGGTRYQDSVKGRFTISRDNGKNTLYLQMNSLKPEDTAVYYCAKDTGRGIMGEYGMDYWGKGTLVTVSS
VL: QTVVTQEPSLSVSPGGTVTLTCGLKSGSVTSSNYPAWYQQTPGQAPRLLIYNTNSRHSGVPSRFSGSISGNKAALTITGAQPEDEADYYCALYMGSGSANAMFGGGTHLTVLG
For the molecule B1, the IC50 in assay [1] amounted to 0.135 µg/mL.

B2: ARGX-110 (non-fucosylated human IgG1 of germlined 27B3 clone 41D12) (antibody, V domains shown)
VH: EVQLVESGGGLVQPGGSLRLSCAASGFTFSVYYMNWVRQAPGKGLEWVSDINNEGGTTYYADSVKGRFTISRDNSKNSLYLQMNSLRAEDTAVYYCARDAGYSNHVPIFDSWGQGTLVTVSS
VL: QAVVTQEPSLTVSPGGTVTLTCGLKSGSVTSDNFPTWYQQTPGQAPRLLIYNTNTRHSGVPDRFSGSILGNKAALTITGAQADDEAEYFCALFISNPSVEFGGGTQLTVLG
notes: also called ARGX-100; 41D12 (ARGX-110)
Take B2: the IC50 in assay [2] was determined as 0.075 µg/mL; in assay [3] it was 0.048 µg/mL.

B3: 27B3 chimeric llama-human mAb (antibody, V domains shown)
VH: EVQLVESGGGLVQPGGSLRLSCAASGFTFSVYYMNWVRQAPGKGLEWVSDINNEGGTTYYADSVKGRFTISRDNAKNTLTLQMNSLKPEDTALYYCVRDAGYSNHVPIFDSWGQGTQVIVAS
VL: QAVVTQEPSLTVSPGGTVTLTCGLKSGSVTSTNFPTWYQQTPGQAPRLLIYNTNTRHSGVPSRFSGSISENKAALTITGAQPEDEAEYFCALFISNPSVEFGGGTQLTVLS
notes: also called SIMPLE antibody 27B3; mAb 27B3
For the molecule B3, the “Raji co-culture assay IC50 relative to 27B3” value in assay [4] was 1 fold relative to 27B3. Besides, in assay [1], the IC50 was found to be 0.15 µg/mL.

B4: SGN70 mAb (antibody, INN chains, looked up, V domains shown)
VH: QVQLVQSGAEVKKPGASVKVSCKASGYTFTNYGMNWVRQAPGQGLKWMGWINTYTGEPTYADAFKGRVTMTRDTSISTAYMELSRLRSDDTAVYYCARDYGDYGMDYWGQGTTVTVSS
VL: DIVMTQSPDSLAVSLGERATINCRASKSVSTSGYSFMHWYQQKPGQPPKLLIYLASNLESGVPDRFSGSGSGTDFTLTISSLQAEDVAVYYCQHSREVPWTFGQGTKVEIK
Regarding B4, the IC50 in [5] was 0.054 µg/mL; in assay [3] it was 0.112 µg/mL; in [6] it was 0.33 µg/mL; in [7], 0.178 µg/mL; in assay [8], 4.97 µg/mL. In [4], this molecule registered an IC50 of IL-8 secretion, Raji / HT1080-CD27 co-culture of 0.055 µg/mL.

B5: 59D10 Fab (Fab, V domains shown)
VH: EVQLVESGGGLVQPGGSLRLSCAASELSFSISEMTWVRQAPGKGLEWVSGISGVTGGSSTSYADSVKGRFTISRDNDKNTLYLQMNSLIPEDTAVYYCATTSGTYYFIPEYEYWGQGTQVTVSS
VL: QSVLTQPPSVSGSPGKTVTISCAGTSSDVGYGYYVSWYQQFPGMAPKLLIYDVNKRASGIADRFSGSKAGNTASLTISGLQSEDEADYYCASYRSSANAVFGGGTHLTVLG
notes: Llama-derived Fab from phage display; MYC tag at C-terminus of Fd
B5: the binding result in assay [9] is reported as “no binding”.

A word on the IC50: it is the point on the concentration scale where inhibition reaches its midpoint.
